Assay results taken from the supplement of paper PMC9170038.

Tested on: MS2 coat protein
Assay: apparent KD of MS2 coat protein; higher = weaker reporter binding
Conditions: Eterna round: R107
In short: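 Designed RNA switches were made by on-chip transcription from Illumina sequencing clusters and then titrated with SNAP-549-labelled MS2 coat protein. Twofold steps ran from 0.7 or 1.5 nM to 3 µM, each lasting 0.8–1.5 h early and 10–20 min late, in 100 mM Tris-HCl pH 7.5, 80 mM KCl, 4 mM MgCl2, without or with constant ligand. Apparent KD is the per-design median of normalised cluster binding-curve fits.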

[1] = input ligand: theophylline 20 uM
[2] = input ligand: tryptophan 2.4 mM
[3] = input ligand: theophylline 2 mM

Sequence	apparent KD of MS2 coat protein (input ligand: arginine 13.2 mM) [nM]	apparent KD of MS2 coat protein [1] [nM]	apparent KD of MS2 coat protein [2] [nM]	apparent KD of MS2 coat protein [3] [nM]	apparent KD of MS2 coat protein (input ligand: none) [nM]
GUGGGACAUGAGGAUCACCCAUGUGACGAUACCAGUCAAUUGAUGGACCCUUGGCAGCGUUGGUAUUGCGGGUAGGCGAGAUAAG [theeternabot_sameState_MS2_Theo_A_3]	21.4	60.2	40.4		
GUUUUCAAGUCGGCCGCCACUGAUACAAUCCUCACCGGUUCACAUGAGGAUCACCCAUGUUCGCUCAGGACCGGGACCUUCUGUG [theeternabot_exclusion_MS2_Trp_B_3]	77.4	141		142	
UAAAACAUGAGGAUCACCCAUGUAAUUGAUACCAGAGUGAUGAUCCUCCCUUGGCAGCAAAACGCUGAUUGGAAACAAUCAGCGA [Mat - Same State Theophlline A - Mod of Eli - D25]	50.1	102	46.8		
UAAAGUAGGUCCAAUAAAACUACAUGUGAAGGAGCGCGCGAAAGCGCAGGUAGGUCGCACAUGAGGAUCACCCAUGUCCUACAAU [MAT - Exclusion Arginine A - Mod of Eli - D17]	42.6	69.1	43	68.2	51.5
UAACAUGAGGAUCACCCAUGUAUAGUCGAUACCAGCUCAAGGGAGAGCCCUUGGCAGCGACACUGGUAUCCAUGGGUGUGGAUAC [(Ms2)-(Theo)-(T)'-(M)'-(T)''_Design3]	76.9	86.2	69.8		
UAACAUGAGGCGGCCGCCACUCAACAUGAGGAUCACCCAUGUAUGUGUAAACAUGAGGAUCACCCGAGGACCGGGCCCUUGUAAU [Same State Tryptophan B 4]	25.2	46.7	54.2	39.5	33.4
UAACGGCACUGAAGGAGCGAGUUGACAAACAUGAGGAUCACCCAUGUUAUGGGUUGUUAAUCUCAGGUAGGUCGCAGUUGUCGUA [Same State Arginine B GF 20]	129	387	365	511	348
UAAUAAGUACCGGUCCUCAGAUCCUCAUGUCGAGGACCGGUACGGCCGCCACUCGAAACAUGAGGAUCACCCAUGUAAUAAUAAU [#06 Exclusion Tryptophan A]	24.5	52.6		44.3	
UAAUCCGGUCCUCGAUAACAUGGGUGAAUACGAGGACCGGUACGGCCGCCACUCGAUAACAUGAGGAUCACCCAUGUAAUAAUAA [|T'-M'-Trp-Ms2|_Design15]	38.2	111		73.6	
UAAUGCAGGUCGGCCGCCACUACAACAUGAGGAUCACCCAUGUACAUGUUGUAGUACGGUAUGAGUAGGACCGGGACCUGCAUAA [Trp-Ms2-M'-T'-(MT)'_Design1]	213	154	787	594	299
UAAUGUGAGAGAAGGAGCGGAGGUCUCGUUACAACAUGAGGAUCACCCAUGUAACGUACCGUCCAGGUAGGUCGCUCUCGGGCGC [lvacmullin]	17.4	24.4	15.2	17.2	13.2
UAAUUUAUAGGGUAUAUCAGAUUAACUGAAGGAGCGUGGUAAUACACAGGUAGGUCGCAGAUGGAACAUGAGGAUCACCCAUGUU [JR_ExcArginiA_Sub016]	17.6	27	21.2	25.7	20
UACAUAUGCCGAAGGAGCGCGAGAAGCAAAGCUUCAUUCCUCACAUGAGGAUCACCCAUGUCGCAGGUAGGUCGCGGCAUAUGUU [#15 Exclusion - Arginine B]	23.7	42	24	28.2	21.8
UACAUAUGCCGAAGGAGCGUGAGAUGCAAAGCAUCAUUCCUCACAUGAGGAUCACCCAUGUCACAGGUAGGUCGCGGCAUAUGUU [ArgBX 3]	94.3	115	96.9	117	90
UACCCAUGAGUUGGAAAAGCUCAUGGGUAUCGAGGACCGGUACGGCCGCCACUCGGCUGUACAUGAGGAUCACCCAUGUCAGGGU [#1 Same State - Tryptophan A Attempt #24 (HarryS)]	29.9	367		721	
UACCUUAACACGGCCGCCACUCUCUAAUAGGAUCAUGGUACCGCACAUGAGGAUCACCCAUGUUUGAGGACCGGGUGUUAUGAAG [theeternabot_sameState_MS2_Trp_B_24]	14.8	25		20.2	
UACUUGCUGACGGCCGCCACUAGAACAUGAGGAUCACCCAUGUACGGCGGCCGUCAUGGGUGGACUAGGACCGGGUCAGCAAGAU [(Trp1)-(Ms2)-(T)'-(M)'-(Trp2)_Design6]	10.7	20.5	13.2	13.9	12
UACUUGCUGACGGCCGCCACUAGAACAUGAGGAUCACCCAUGUAUGGCGGCCGAAUCCUCAUGACUAGGACCGGGUCAGCAAGAU [(Trp1)-(Ms2)-(T)'-(M)'-(Trp2)_Design2]	8.18	12.5	8.22	8.75	8.09
UACUUGCUGACGGCCGCCACUAGAACAUGAGGAUCACCCAUGUAUGGCGGCCGUCAUGGGUGGACUAGGACCGGGUCAGCAAGAU [(Trp1)-(Ms2)-(T)'-(M)'-(Trp2)_Design7]	11.4	14.6		11.7	
UAGACGGCCGGAAGGAGCGGUACAUGAGGAUCACCCAUGUAUCUCUGGGCAUCCGUAGAGUGCCAGGUAGGUCGCCGGUUGCGGG [XArg-B22]	12.3	13.8	11.4	11.5	11
UAGCAUAGUACGGCCGCCACUCCUGGUUCCCGGCCGUGUGUAAGACAUGAGGAUCACCCAUGUAGGAGGACCGGGUAUCGCUUGC [theeternabot_sameState_MS2_Trp_B_22]	12.5	20.2		15.6	
UAGCGAUAAUCUGAUACCAGACGUGUGCUCUCCUCAGACAUGAGGAUCACCCAUGUAUGCGUCCCUUGGCAGCAGAGUGAGGAGA [Theo B Ex t5]	19.6	26.8	18.6	115	19.6
UAUAUAGAAGGAAGUCAUAUAGAUGCAGAAGGAGCGUAGGAAACUACAGGUAGGUCGCUGAGGUACAUGAGGAUCACCCAUGUAG [SSArg A #15 Slice of Pi]	24.7	44.7	29.4	24.9	32.3
UAUAUAUACUCGGCCGCCACUGAGAGAGUCAUGUAAACAUGAGGAUCACCCAUGUAAUAUAUAUACAGGACCGGGAGUAUAUUAA [4.A]	19.1	17.3		15.8	
UAUAUAUAUCACUAACUGUUCUUGAGGUCUCGAGGACCGGUACGGCCGCCACUCGGGCCGCCUCACAUGAGGAUCACCCAUGUCC [XTryp A #3]	38.9	94.8		89.4	
UAUAUAUGGAUGGAUACCAGCAGAGAAAACGUUUAUCCUAACAUGAGGAUCACCCAUGUAUGCCCUUGGCAGCUGUUUAUAUAUA [8.J]	21	33.9	24.3		
UAUCCACAUGAGGAUCACCCAUGUAGGGAAGGAGCGGUGAUUUCACCAGGUAGGUCGCCUUACUGAGGAGAGCCGGUGGAAUCGU [Exclusion - Arginine A (Freestyle 31)]	22.3	31.9	31.6	32.9	24.9
UAUCCACAUGAGGAUCACCCAUGUUAGGAAGGAGCGGUGAAUGAACCAGGUAGGUCGCCUAGGUGAGGACCAUCUAUGGAUUCGU [Exclusion - Arginine A (Freestyle 12)]	12.8	19.8	13.1	14.6	13.3
